Source: patent US20190367903, “OLIGONUCLEOTIDE PROBES AND USES THEREOF” (CARIS SCIENCE, INC., published 2019)

Target: T1, EpCAM (UniProt P16422 P16422:24-265)
T1 sequence: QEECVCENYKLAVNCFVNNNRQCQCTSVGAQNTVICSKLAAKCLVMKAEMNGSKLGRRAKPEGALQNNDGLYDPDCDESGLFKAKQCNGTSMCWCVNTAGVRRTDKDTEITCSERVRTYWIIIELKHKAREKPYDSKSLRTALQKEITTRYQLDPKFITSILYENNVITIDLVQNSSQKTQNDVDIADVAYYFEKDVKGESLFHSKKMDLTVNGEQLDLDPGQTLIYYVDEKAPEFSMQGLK
Assay: stated identified by library screening to recognize EpCAM, no data shown

B1: CAR003 (ssRNA)
RNA: AUCCAGAGUGACGCAGCAGUCUUUUCUGAUGGACACGUGGUGGUCUAGUAUCACUAAGCCACCGUGUCCA
binding result: binds
